Assay results reported in PMC10952593, “Synthetic cannabinoid receptor agonists are monoamine oxidase‐A selective inhibitors” (The Febs Journal, 2023).

Substrate: NCc1ccccc1
Assay: purified protein
Format: biochemical, Homo sapiens
Conditions: 30 μM MAO-B [sic], 50 mM HEPES pH 7.5, 0.5% Triton X-100, 25 °C

B1: MAO-B (Homo sapiens) (protein)
chain: SNKCDVVVVGGGISGMAAAKLLHDSGLNVVVLEARDRVGGRTYTLRNQKVKYVDLGGSYVGPTQNRILRLAKELGLETYKVNEVERLIHHVKGKSYPFRGPFPPVWNPITYLDHNNFWRTMDDMGREIPSDAPWKAPLAEEWDNMTMKELLDKLCWTESAKQLATLFVNLCVTAETHEVSALWFLWYVKQCGGTTRIISTTNGGQERKFVGGSGQVSERIMDLLGDRVKLERPVIYIDQTRENVLVETLNHEMYEAKYVISAIPPTLGMKIHFNPPLPMMRNQMITRVPLGSVIKCIVYYKEPFWRKKDYCGTMIIDGEEAPVAYTLDDTKPEGNYAAIMGFILAHKARKLARLTKEERLKKLCELYAKVLGSLEALEPVHYEEKNWCEEQYSGGCYTTYFPPGILTQYGRVLRQPVDRIYFAGTETATHWSGYMEGAVEAGERAAREILHAMGKIPEDEIWQSEPESVDVPAQPITTTFLERHLPSVPGLLRLIGLTTIFSATALGFLAHKRGLLVRV
notes: FAD enzyme; PDB 2V5Z was only the docking model
  Km: 140 ± 30 µM
